# Source: PMC2367712
# Several values for one entry are separate records, joined by “and”; a condition that tells them apart may be missing. Equal entries are not always repeated.
# Target: M. tuberculosis Lsr2 R86A mutant protein (M. tuberculosis)
# Experiment: cross-linking
substance,measurement,value
M. tuberculosis Lsr2 R86A mutant protein (natural protein),stoichiometry N,2 and 4
